Measurements taken from patent US20120178908A1 (Novo Nordisk, published 2012).

B1: Fab 0023-VH-CH1-L4a-TF;LC-HPC4 (other)
VH-CH1-linker-TF: EVRLVESGGGLVQPGGSLKLSCATSGFTFSDYFMYWIRQTPEKRLEWVAYISNGGDSSSYPDTVKGRFTISRDNAKNTLYLQMSRLKSEDTAMYYCATNKNWDDYYDMDYWGQGTSVTVSSASTKGPSVFPLAPCSRSTSESTAALGCLVKDYFPEPVTVSWNSGALTSGVHTFPAVLQSSGLYSLSSVVTVPSSSLGTKTYTCNVDHKPSNTKVDKRVESKGSGGGGSGGGGSGGGGSSGTTNTVAAYNLTWKSTNFKTILEWEPKPVNQVYTVQISTKSGDWKSKCFYTTDTECDLTDEIVKDVKQTYLARVFSYPAGNVESTGSAGEPLYENSPEFTPYLETNLGQPTIQSFEQVGTKVNVTVEDERTLVRRNNTFLSLRDVFGKDLIYTLYYWKSSSSGKKTAKTNTNEFLIDVDKGENYCFSVQAVIPSRTVNRKSTDSPVECMGQEKGEFRE
light chain-HPC4: DIVVSQSPSSLAVSAGEKVTMSCKSSQSLLNSRTRKNYLAWYQQKPGQSPKLLIYWASTRESGVPDRFTGSGSGTDFTLTISSVQAEDLAVYYCKQSYNLLTFGAGTKLELKRTVAAPSVFIFPPSDEQLKSGTASVVCLLNNFYPREAKVQWKVDNALQSGNSQESVTEQDSKDSTYSLSSTLTLSKADYEKHKVYACEVTHQGLSSPVTKSFNRGECEDQVDPRLIDGK
B2: Fab 0051-VH-CH1-L4a-TF;LC-HPC4 (other)
VH-CH1-linker-TF: QVQLEQSGAELVRPGVSVKISCKGSGYTFTDYSMHWVKQSHAKSLEWIGVISTYYGDVRYNQKFKGKATMTVDKSSSTAYMALARLTSEDSAIYYCARAPMITTGAWFAYWGQGTLVTVSAASTKGPSVFPLAPCSRSTSESTAALGCLVKDYFPEPVTVSWNSGALTSGVHTFPAVLQSSGLYSLSSVVTVPSSSLGTKTYTCNVDHKPSNTKVDKRVESKGSGGGGSGGGGSGGGGSSGTTNTVAAYNLTWKSTNFKTILEWEPKPVNQVYTVQISTKSGDWKSKCFYTTDTECDLTDEIVKDVKQTYLARVFSYPAGNVESTGSAGEPLYENSPEFTPYLETNLGQPTIQSFEQVGTKVNVTVEDERTLVRRNNTFLSLRDVFGKDLIYTLYYWKSSSSGKKTAKTNTNEFLIDVDKGENYCFSVQAVIPSRTVNRKSTDSPVECMGQEKGEFRE
light chain-HPC4: SIVMTQTPKFLLVSAGDRVTITCKASQSVSNDVAWYQQKPGQSPKLLINYASSRYTGIPDRFTGSGYGTDFTFTISTVQAEDLAVYFCQQDYSSPYTFGGGTKLEIERTVAAPSVFIFPPSDEQLKSGTASVVCLLNNFYPREAKVQWKVDNALQSGNSQESVTEQDSKDSTYSLSSTLTLSKADYEKHKVYACEVTHQGLSSPVTKSFNRGECEDQVDPRLIDGK
B3: Fab 0023-LC-L7-TF;VH-CH1-HPC4 (other)
light chain-linker-TF: DIVVSQSPSSLAVSAGEKVTMSCKSSQSLLNSRTRKNYLAWYQQKPGQSPKLLIYWASTRESGVPDRFTGSGSGTDFTLTISSVQAEDLAVYYCKQSYNLLTFGAGTKLELKRTVAAPSVFIFPPSDEQLKSGTASVVCLLNNFYPREAKVQWKVDNALQSGNSQESVTEQDSKDSTYSLSSTLTLSKADYEKHKVYACEVTHQGLSSPVTKSFNRGECGGGGSGGGGSGGGGSGSGGGGSGGGGSGGGGSSGTTNTVAAYNLTWKSTNFKTILEWEPKPVNQVYTVQISTKSGDWKSKCFYTTDTECDLTDEIVKDVKQTYLARVFSYPAGNVESTGSAGEPLYENSPEFTPYLETNLGQPTIQSFEQVGTKVNVTVEDERTLVRRNNTFLSLRDVFGKDLIYTLYYWKSSSSGKKTAKTNTNEFLIDVDKGENYCFSVQAVIPSRTVNRKSTDSPVECMGQEKGEFRE
VH-CH1-HPC4: EVRLVESGGGLVQPGGSLKLSCATSGFTFSDYFMYWIRQTPEKRLEWVAYISNGGDSSSYPDTVKGRFTISRDNAKNTLYLQMSRLKSEDTAMYYCATNKNWDDYYDMDYWGQGTSVTVSSASTKGPSVFPLAPCSRSTSESTAALGCLVKDYFPEPVTVSWNSGALTSGVHTFPAVLQSSGLYSLSSVVTVPSSSLGTKTYTCNVDHKPSNTKVDKRVESKEDQVDPRLIDGK
B4: Fab 0023-LC-L8-TF;VH-CH1-HPC4 (other)
light chain-linker-TF: DIVVSQSPSSLAVSAGEKVTMSCKSSQSLLNSRTRKNYLAWYQQKPGQSPKLLIYWASTRESGVPDRFTGSGSGTDFTLTISSVQAEDLAVYYCKQSYNLLTFGAGTKLELKRTVAAPSVFIFPPSDEQLKSGTASVVCLLNNFYPREAKVQWKVDNALQSGNSQESVTEQDSKDSTYSLSSTLTLSKADYEKHKVYACEVTHQGLSSPVTKSFNRGECGGGGSGGGGSGGGGSGGGGSGSGGGGSGGGGSGGGGSSGTTNTVAAYNLTWKSTNFKTILEWEPKPVNQVYTVQISTKSGDWKSKCFYTTDTECDLTDEIVKDVKQTYLARVFSYPAGNVESTGSAGEPLYENSPEFTPYLETNLGQPTIQSFEQVGTKVNVTVEDERTLVRRNNTFLSLRDVFGKDLIYTLYYWKSSSSGKKTAKTNTNEFLIDVDKGENYCFSVQAVIPSRTVNRKSTDSPVECMGQEKGEFRE
VH-CH1-HPC4: B3 VH-CH1-HPC4
B5: Fab 0023-LC-L9-TF;VH-CH1-HPC4 (other)
light chain-linker-TF: DIVVSQSPSSLAVSAGEKVTMSCKSSQSLLNSRTRKNYLAWYQQKPGQSPKLLIYWASTRESGVPDRFTGSGSGTDFTLTISSVQAEDLAVYYCKQSYNLLTFGAGTKLELKRTVAAPSVFIFPPSDEQLKSGTASVVCLLNNFYPREAKVQWKVDNALQSGNSQESVTEQDSKDSTYSLSSTLTLSKADYEKHKVYACEVTHQGLSSPVTKSFNRGECGGGGSGGGGSGGGGSGGGGSGGGGSGSGGGGSGGGGSGGGGSSGTTNTVAAYNLTWKSTNFKTILEWEPKPVNQVYTVQISTKSGDWKSKCFYTTDTECDLTDEIVKDVKQTYLARVFSYPAGNVESTGSAGEPLYENSPEFTPYLETNLGQPTIQSFEQVGTKVNVTVEDERTLVRRNNTFLSLRDVFGKDLIYTLYYWKSSSSGKKTAKTNTNEFLIDVDKGENYCFSVQAVIPSRTVNRKSTDSPVECMGQEKGEFRE
VH-CH1-HPC4: B3 VH-CH1-HPC4
B6: Fab 0052-LC-L4a-TF;VH-CH1-HPC4 (other)
light chain-linker-TF: DIQMTQTTSSLSASLGDRVTISCRASQDISNYLNWYQQKPDGTVKLLIFYTSRLHSGVPSRFSGSGSGTDYSLTISNLEPEDIATYYCQQDTKLPYTFGGGTKLEMKRTVAAPSVFIFPPSDEQLKSGTASVVCLLNNFYPREAKVQWKVDNALQSGNSQESVTEQDSKDSTYSLSSTLTLSKADYEKHKVYACEVTHQGLSSPVTKSFNRGECGSGGGGSGGGGSGGGGSSGTTNTVAAYNLTWKSTNFKTILEWEPKPVNQVYTVQISTKSGDWKSKCFYTTDTECDLTDEIVKDVKQTYLARVFSYPAGNVESTGSAGEPLYENSPEFTPYLETNLGQPTIQSFEQVGTKVNVTVEDERTLVRRNNTFLSLRDVFGKDLIYTLYYWKSSSSGKKTAKTNTNEFLIDVDKGENYCFSVQAVIPSRTVNRKSTDSPVECMGQEKGEFRE
VH-CH1-HPC4: QVQLQQSGAEPMKPGASVKISCKATGYTFSSHWIEWIKQRPGHGLEWIGEILPGSGNTNYNEKFKGKATFTADTSSNTAYMQLSSLTSEDSAVYCCARGYYGLNYDWYFDVWGAGTTVTVSSASTKGPSVFPLAPCSRSTSESTAALGCLVKDYFPEPVTVSWNSGALTSGVHTFPAVLQSSGLYSLSSVVTVPSSSLGTKTYTCNVDHKPSNTKVDKRVESKEDQVDPRLIDGK
B7: Fab 0052-VH-CH1-L4a-TF;LC-HPC4 (other)
VH-CH1-linker-TF: QVQLQQSGAEPMKPGASVKISCKATGYTFSSHWIEWIKQRPGHGLEWIGEILPGSGNTNYNEKFKGKATFTADTSSNTAYMQLSSLTSEDSAVYCCARGYYGLNYDWYFDVWGAGTTVTVSSASTKGPSVFPLAPCSRSTSESTAALGCLVKDYFPEPVTVSWNSGALTSGVHTFPAVLQSSGLYSLSSVVTVPSSSLGTKTYTCNVDHKPSNTKVDKRVESKGSGGGGSGGGGSGGGGSSGTTNTVAAYNLTWKSTNFKTILEWEPKPVNQVYTVQISTKSGDWKSKCFYTTDTECDLTDEIVKDVKQTYLARVFSYPAGNVESTGSAGEPLYENSPEFTPYLETNLGQPTIQSFEQVGTKVNVTVEDERTLVRRNNTFLSLRDVFGKDLIYTLYYWKSSSSGKKTAKTNTNEFLIDVDKGENYCFSVQAVIPSRTVNRKSTDSPVECMGQEKGEFRE
light chain-HPC4: DIQMTQTTSSLSASLGDRVTISCRASQDISNYLNWYQQKPDGTVKLLIFYTSRLHSGVPSRFSGSGSGTDYSLTISNLEPEDIATYYCQQDTKLPYTFGGGTKLEMKRTVAAPSVFIFPPSDEQLKSGTASVVCLLNNFYPREAKVQWKVDNALQSGNSQESVTEQDSKDSTYSLSSTLTLSKADYEKHKVYACEVTHQGLSSPVTKSFNRGECEDQVDPRLIDGK

Tests used:
[1] = biological target: T1, TLT-1 receptor on the surface of activated human platelets (human, UniProt Q86YW5 16-311); assay: cell-based or functional assay
T1 sequence: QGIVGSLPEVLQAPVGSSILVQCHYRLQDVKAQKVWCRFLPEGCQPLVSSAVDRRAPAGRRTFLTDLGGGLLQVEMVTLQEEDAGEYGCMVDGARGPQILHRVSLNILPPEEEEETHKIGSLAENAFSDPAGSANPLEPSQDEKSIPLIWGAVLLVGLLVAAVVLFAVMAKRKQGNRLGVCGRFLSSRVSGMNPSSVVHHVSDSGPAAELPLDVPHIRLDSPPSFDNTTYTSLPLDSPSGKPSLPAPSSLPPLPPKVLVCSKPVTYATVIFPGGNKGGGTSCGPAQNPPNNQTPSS

[2] = biological target: T2, TLT-1 18-188 relipidated in 20:80 PS:PC vesicles (human, UniProt Q86YW5 18-188); assay: cell-based or functional assay
T2 sequence: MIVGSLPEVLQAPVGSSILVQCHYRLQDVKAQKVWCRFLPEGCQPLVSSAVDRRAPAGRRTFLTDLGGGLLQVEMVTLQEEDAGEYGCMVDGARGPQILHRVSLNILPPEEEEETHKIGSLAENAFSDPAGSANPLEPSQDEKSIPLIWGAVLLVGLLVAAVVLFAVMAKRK

Binder | FVII-mediated FXa generation % Activity activated plts (n 1) [1] [%] | FVIIa-mediated FXa generation % Activity activated plts (n 1) [1] [%] | FVII-mediated FXa generation % Activity lipidated TLT-1 [2] [%] | FVIIa-mediated FXa generation % Activity lipidated TLT-1 [2] [%]
B1 | 14 | 45 | 26 | 53
B2 | 43 | 72 | 22 | 48
B3 | 17 | 35 | 25 | 40
B4 | 16 | 33 | 24 | 35
B5 | 14 | 32 | 24 | 38
B6 |  | 20 | 9 | 29
B7 | 10 | 25 | 13 | 29
